Laboratory results published in patent US20180095098A1.

Target: Human β2-adrenergic receptor, amino-terminal FLAG epitope tag, truncated after residue 365, biotinylated, bound to the agonist BI-167107 (human) (UniProt P07550)
Assay: SPR (Biacore T100, 25 °C), biotinylated BI-167107-bound receptor on SA chip, single-cycle kinetics

fold slowing of dissociation against wild-type Nb80: > 10 fold
Substance: Nb6B9, high affinity variant of Nb80 (VHH)
